Laboratory results reported in publication PMC3956929.

What was measured:
[1] = target: GAL4 DNA-binding domain-fused Bombyx mori Siwi (pDBD-Siwi) (Bombyx mori) (UniProt A8D8P8); assay: two-hybrid; insect two-hybrid (I2H) in BmN4 cells: GAL4 DBD bait, p65 AD prey, 4xUAS-TATA-Luc reporter, luciferase at 72 h post-transfection, relative to the pUC18 control prey; also in BmN4-SID1 cells 72 h after dsRNA against HP1a, HP1b, Ago3, Siwi, putative piRNA-related genes or GFP (control)
[2] = target: GAL4 DNA-binding domain-fused Bombyx mori Ago3 (pDBD-Ago3) (Bombyx mori) (UniProt A9ZSZ2); assay: as above
Chain of UniProt A9ZSZ2 (A9ZSZ2 whole entry, the tested form may be a part): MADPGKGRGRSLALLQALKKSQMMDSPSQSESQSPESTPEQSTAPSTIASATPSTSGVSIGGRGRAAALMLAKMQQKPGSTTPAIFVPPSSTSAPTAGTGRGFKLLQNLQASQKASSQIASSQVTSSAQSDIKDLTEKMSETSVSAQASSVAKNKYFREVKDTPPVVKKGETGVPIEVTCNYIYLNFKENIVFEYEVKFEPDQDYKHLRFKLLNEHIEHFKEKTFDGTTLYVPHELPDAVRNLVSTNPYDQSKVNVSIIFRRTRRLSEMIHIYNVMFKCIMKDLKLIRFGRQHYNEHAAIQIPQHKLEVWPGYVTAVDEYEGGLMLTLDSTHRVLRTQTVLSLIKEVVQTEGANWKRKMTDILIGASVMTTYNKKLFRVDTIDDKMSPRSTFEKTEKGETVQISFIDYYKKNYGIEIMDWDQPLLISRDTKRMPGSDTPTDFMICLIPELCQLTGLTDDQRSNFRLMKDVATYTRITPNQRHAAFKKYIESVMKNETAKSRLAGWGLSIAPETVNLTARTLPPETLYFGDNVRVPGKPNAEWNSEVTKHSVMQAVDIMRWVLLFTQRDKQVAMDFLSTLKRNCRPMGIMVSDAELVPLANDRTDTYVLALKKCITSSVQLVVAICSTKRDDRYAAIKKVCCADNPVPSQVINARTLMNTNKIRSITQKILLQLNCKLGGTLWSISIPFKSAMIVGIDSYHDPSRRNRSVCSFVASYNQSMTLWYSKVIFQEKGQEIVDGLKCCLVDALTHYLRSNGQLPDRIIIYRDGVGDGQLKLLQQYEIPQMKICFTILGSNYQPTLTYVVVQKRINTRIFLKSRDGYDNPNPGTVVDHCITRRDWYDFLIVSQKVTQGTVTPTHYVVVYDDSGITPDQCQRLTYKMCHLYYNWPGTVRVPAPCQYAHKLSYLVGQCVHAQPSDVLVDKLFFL

Chain of UniProt A8D8P8 (A8D8P8 whole entry, the tested form may be a part): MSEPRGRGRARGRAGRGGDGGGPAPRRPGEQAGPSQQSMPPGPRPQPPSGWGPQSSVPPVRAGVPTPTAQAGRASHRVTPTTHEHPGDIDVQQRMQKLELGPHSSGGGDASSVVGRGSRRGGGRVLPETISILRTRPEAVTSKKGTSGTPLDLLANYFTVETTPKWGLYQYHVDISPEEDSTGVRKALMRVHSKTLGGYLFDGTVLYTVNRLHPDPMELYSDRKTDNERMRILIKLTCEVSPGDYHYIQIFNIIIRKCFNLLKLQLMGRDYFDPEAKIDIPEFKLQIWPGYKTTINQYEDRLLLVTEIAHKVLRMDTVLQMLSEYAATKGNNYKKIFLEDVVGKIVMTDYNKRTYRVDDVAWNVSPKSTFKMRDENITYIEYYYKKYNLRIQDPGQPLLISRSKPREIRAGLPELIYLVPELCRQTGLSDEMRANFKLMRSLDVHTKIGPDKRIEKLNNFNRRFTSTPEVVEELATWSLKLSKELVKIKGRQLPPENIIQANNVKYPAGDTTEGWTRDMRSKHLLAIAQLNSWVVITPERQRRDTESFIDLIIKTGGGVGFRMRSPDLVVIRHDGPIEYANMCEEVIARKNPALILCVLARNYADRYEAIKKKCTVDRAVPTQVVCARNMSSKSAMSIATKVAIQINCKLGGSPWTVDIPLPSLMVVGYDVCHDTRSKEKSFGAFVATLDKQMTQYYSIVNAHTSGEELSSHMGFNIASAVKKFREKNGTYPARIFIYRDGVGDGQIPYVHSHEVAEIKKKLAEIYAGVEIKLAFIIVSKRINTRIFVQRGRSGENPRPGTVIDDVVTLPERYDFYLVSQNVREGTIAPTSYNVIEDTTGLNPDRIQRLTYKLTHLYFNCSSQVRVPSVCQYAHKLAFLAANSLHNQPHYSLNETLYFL

fold increase of reporter activity over the pUC18 control [1]: > 10 fold
fold increase of reporter activity over the pUC18 control [2]: > 10 fold
Substance: p65 activation domain-fused Bombyx mori HP1a (pAD-HP1a) (natural protein)
